# Publication PMC5862903
# Key:
# Assay in all cases: ELISA
# Settings in all cases: 0.5 μg coated receptor, read off a plot
# [1] = biological target: Manduca sexta CR12 CAD fragment corresponding to cadherin repeat 12 (CAD-CR12)
# [2] = biological target: Manduca sexta alkaline phosphatase (ALP), recombinant
# [3] = biological target: Manduca sexta aminopeptidase N 1 (APN1), recombinant
substance,measurement,setting,value
Cry1Ab wild type toxin (from UniProt P0A370) G439D,response,"[1]; toxin 6.25 nM, parent: est. 0.46",0.12 ABS (490)
same,response,"[1]; toxin 12.5 nM, parent: est. 0.76",0.2 ABS (490)
same,response,"[1]; toxin 25 nM, parent: est. 1.3",0.45 ABS (490)
same,response,"[1]; toxin 50 nM, parent: est. 2.0",0.76 ABS (490)
same,response,"[1]; toxin 100 nM, parent: est. 2.4",1.2 ABS (490)
same,response,"[2]; toxin 6.25 nM, parent: est. 0.23",0.03 ABS (490)
same,response,"[2]; toxin 12.5 nM, parent: est. 0.39",0.05 ABS (490)
same,response,"[2]; toxin 25 nM, parent: est. 0.75",0.13 ABS (490)
same,response,"[2]; toxin 50 nM, parent: est. 1.5",0.34 ABS (490)
same,response,"[2]; toxin 100 nM, parent: est. 2.2",0.68 ABS (490)
same,response,"[3]; toxin 6.25 nM, parent: est. 0.27",0.09 ABS (490 nm)
same,response,"[3]; toxin 12.5 nM, parent: est. 0.48",0.12 ABS (490 nm)
same,response,"[3]; toxin 25 nM, parent: est. 0.95",0.27 ABS (490 nm)
same,response,"[3]; toxin 50 nM, parent: est. 1.6",0.61 ABS (490 nm)
same,response,"[3]; toxin 100 nM, parent: est. 2.1",1.1 ABS (490 nm)
